These results are taken from the RNAGym collection of RNA variant scans (doi:10.1021/acssynbio.7b00057).

B1: Pistol ribozyme (parent)
chain: GGGUCGUUGUUCCAUAAUCGCGUGGAUAUGGCACGCAAGUUUCUACCGGGCACCGUAAAUGUCCGACUGGAGCCGUUCGGGCGGCUAUAAACAGACCUCAGGCCCGAAGCGUGGCGGCACCUGCCGCCGGUGGUAAAAAAGAUCGGAAGAGCACACGUCU

In the data set the parent is B1. The experiment in a line: aptazyme ON/OFF ratio, guanine; higher = stronger switching; co-transcriptional cleavage with and without guanine.
On to U7A U8C U10G U11C C12G, for which the “aptazyme ON/OFF ratio” value was determined as 2.72.

Regarding U7A U8C U10G U11C C12A, the “aptazyme ON/OFF ratio” value was determined as 2.43. With U7A U8C U10G U11C C12U the figure was 1.28.

Regarding U7A U8C U11C C12A, the “aptazyme ON/OFF ratio” value was 1.39. For U7A U8C U11C C12U, the “aptazyme ON/OFF ratio” value was determined as 1.46.

Consider U7A U8C U11C C12G, for which the “aptazyme ON/OFF ratio” value came to 1.63.

Regarding U7A U8C G9U U11G C13G, the “aptazyme ON/OFF ratio” value came out at 1.12. Regarding U7A U8C G9U U11G C13A, the “aptazyme ON/OFF ratio” value was determined as 1.2. With U7A U8C G9U U11G C13U the figure was 1.27; with U7A U8G C12G C13G, 1.27; with U7A U8G C12G C13U, 1.38. Consider U7A U8G C12G C13A, for which the “aptazyme ON/OFF ratio” value is 1.38.

Turning to U7A U8C U10C U11C C12G C13U, the “aptazyme ON/OFF ratio” value worked out at 1.09.

Consider U7A U8C U10C U11C C12G C13G, for which the “aptazyme ON/OFF ratio” value was 1.1.

Take U7A U8C U10C U11C C12G C13A: the “aptazyme ON/OFF ratio” value was 1.12. For U7A U8C U10G U11C C12A C13G, the “aptazyme ON/OFF ratio” value is 1.12. Turning to U7A U8C U10G U11C C12A C13A, the “aptazyme ON/OFF ratio” value came out at 1.34. With U7A U8C U10G U11C C12A C13U the figure was 1.39; with U7A U8C G9U U11G C12G C13A, 1.22. The result for U7A U8C G9U U11G C12G C13U reads 1.07; that for U7A U8C G9U U11G C12G C13G, 1.16. With U7A U8C G9U U10G U11C C12A C13A the figure was 1.14.

On to U7A U8C G9U U10G U11C C12A C13U, for which the “aptazyme ON/OFF ratio” value was 1.26.

For the variant U7A U8C G9U U10G U11C C12A C13G, the “aptazyme ON/OFF ratio” value was 1.15. Turning to U7A U8C G9U U10G U11G, the “aptazyme ON/OFF ratio” value amounted to 1.11. With U7A U8C G9U U11A C13G, the “aptazyme ON/OFF ratio” value was 1.07. As for U7A U8C G9U U11A C13A, the “aptazyme ON/OFF ratio” value came to 1.13.

For the variant U7A U8C G9U U11A C13U, the “aptazyme ON/OFF ratio” value was 1.28.

Turning to U7A U8C U10C C13A, the “aptazyme ON/OFF ratio” value is 1.08. With U7A U8C U10C C13U the figure was 2.97; with U7A U8C U10C C13G, 1.32; with U7A U8C G9U U10G U11C C12U C13U, 1.09. The result for U7A U8C G9U U10G U11C C12U C13A reads 1.2. Regarding U7A U8C G9U U10G U11C C12U C13G, the “aptazyme ON/OFF ratio” value is 1.19. Turning to U7A U8C U10A C12U, the “aptazyme ON/OFF ratio” value was determined as 1.1. Regarding U7A U8C U10A C12A, the “aptazyme ON/OFF ratio” value stood at 1.24.

Turning to U7A U8C U10A C12G, the “aptazyme ON/OFF ratio” value turned out to be 1.18. Take U7A U8C U10A C12A C13A: the “aptazyme ON/OFF ratio” value worked out at 1.22. The result for U7A U8C U10A C12A C13G reads 1.15; that for U7A U8C U10A C12A C13U, 1.22; that for U7A U8C U10A U11A C12A, 1.17. U7A U8C U10A U11A C12U: the “aptazyme ON/OFF ratio” value amounted to 1.18. In the case of U7A U8C U10A U11A C12G, the “aptazyme ON/OFF ratio” value came to 1.23. The result for U7A U8C U10G U11A C12A reads 1.42.

As to U7A U8C U10G U11A C12G, the “aptazyme ON/OFF ratio” value was 1.37. Turning to U7A U8C U10G U11A C12U, the “aptazyme ON/OFF ratio” value is 1.11. With U7A U8C U11C C12G C13A, the “aptazyme ON/OFF ratio” value is 1.32. The result for U7A U8C U11C C12G C13U reads 1.5; that for U7A U8C U11C C12G C13G, 1.22. On to U7A U8C G9U U11C C12A C13A, for which the “aptazyme ON/OFF ratio” value came to 1.18. For U7A U8C G9U U11C C12A C13G, the “aptazyme ON/OFF ratio” value was 1.1.

On to U7A U8C G9U U11C C12A C13U, for which the “aptazyme ON/OFF ratio” value was 1.2. For U7A U8C U10A U11C C12G C13A, the “aptazyme ON/OFF ratio” value amounted to 1.08. With U7A U8C U10A U11C C12G C13G the figure was 1.27; with U7A U8C U10A U11C C12G C13U, 1.13. The result for U7A U8C G9U U10G U11C C12U reads 1.12.

Turning to U7A U8C G9U U10G U11C C12A, the “aptazyme ON/OFF ratio” value came out at 1.25. The result for U7A U8C G9U U10G U11C C12G reads 1.32. The result for U7A U8C U10A U11G C12A C13G reads 1.15. With U7A U8C U10A U11G C12A C13U the figure was 1.22; with U7A U8C U10A U11G C12A C13A, 1.17.

On to U7A U8C U10G U11A C13U, for which the “aptazyme ON/OFF ratio” value is 1.09. With U7A U8C U10G U11A C13G the figure was 1.2; with U7A U8C U10G U11A C13A, 1.12. With U7A U8C G9U U11C C12U C13A the figure was 1.12. Consider U7A U8C G9U U11C C12U C13U, for which the “aptazyme ON/OFF ratio” value was 1.17. With U7A U8C G9U U11C C12U C13G the figure was 1.04; with U7A U8C U10A C12U C13A, 1.11; with U7A U8C U10A C12U C13U, 1.22. The result for U7A U8C U10A C12U C13G reads 1.08. With U7A U8C U10G U11G C12G C13A the figure was 1.08; with U7A U8C U10G U11G C12G C13G, 1.19; with U7A U8C U10G U11G C12G C13U, 1.4. In the case of U7A U8C G9U U11G, the “aptazyme ON/OFF ratio” value was 1.29. In the case of U7A U8C G9U U11C, the “aptazyme ON/OFF ratio” value was found to be 1.1. As for U7A U8C G9U U11A, the “aptazyme ON/OFF ratio” value is 1.19.

As for U7A U8C U10C U11A C12G C13U, the “aptazyme ON/OFF ratio” value was 1.21. The result for U7A U8C U10C U11A C12G C13G reads 1.22; that for U7A U8C U10C U11A C12G C13A, 1.17.

As to U7A U8C U10C U11A C13U, the “aptazyme ON/OFF ratio” value came to 1.17. With U7A U8C U10C U11A C13A the figure was 1.15; with U7A U8C U10C U11A C13G, 1.16; with U7A U8C G9U U11G C12U C13U, 1.28.
